# Test results published in the supplement of paper PMC9112550, “Optimization of the antimicrobial peptide Bac7 by deep mutational scanning” (BMC Biology, 2022).
# Test system: Escherichia coli TOP10
# Assay: shrunken log2 fold change of peptide-encoding DNA abundance (4.5 h post-induction vs induction); higher = less antimicrobial activity (less host growth inhibition)
# Details: time post-induction: 4.5 h; library: site-saturation at positions 5, 18, 19, 20
# 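Also: peptides expressed intracellularly from a pBAD plasmid library in pooled LB shake-flask culture, induced with 0.3% L-arabinose, DNA abundance read by NGS, three biological replicates, DESeq2 with apeglm shrinkage.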
row,Sequence,shrunken log2 fold change
1,RRIRWRPPRLPRPRPRPQQAPRP,-0.000157
2,RRIRFRPPRLPRPRPRPKFCPRP,0.00718
3,RRIRKRPPRLPRPRPRPQGNPRP,0.0216
4,RRIRARPPRLPRPRPRPAPEPRP,0.777
5,RRIRKRPPRLPRPRPRPSIMPRP,-0.195
6,RRIRYRPPRLPRPRPRPQWDPRP,-0.842
7,RRIRSRPPRLPRPRPRPPYKPRP,-0.465
8,RRIRIRPPRLPRPRPRPNLKPRP,-0.484
9,RRIRRRPPRLPRPRPRPASAPRP,0.227
10,RRIRLRPPRLPRPRPRPHPCPRP,-0.0967
11,RRIRARPPRLPRPRPRPHLEPRP,-0.124
12,RRIRIRPPRLPRPRPRPNEFPRP,-0.295
13,RRIRTRPPRLPRPRPRPEGKPRP,0.0733
14,RRIRARPPRLPRPRPRPEYTPRP,-0.0194
15,RRIRFRPPRLPRPRPRPSDLPRP,-0.0388
16,RRIRPRPPRLPRPRPRPSAQPRP,-0.0511
17,RRIRYRPPRLPRPRPRPQSSPRP,-0.687
18,RRIRCRPPRLPRPRPRPEWFPRP,0.000144
19,RRIRCRPPRLPRPRPRPDDYPRP,0.0185
20,RRIRTRPPRLPRPRPRPMNAPRP,0.194
21,RRIRLRPPRLPRPRPRPGKKPRP,0.0971
22,RRIRIRPPRLPRPRPRPVHWPRP,0.0203

row,Sequence,shrunken log2 fold change
1,RRIRMRPPRLPRPRPRPSLNPRP,-0.0544
2,RRIRYRPPRLPRPRPRPMGHPRP,-1.16
3,RRIRERPPRLPRPRPRPVWEPRP,0.239
4,RRIRYRPPRLPRPRPRPQQYPRP,-1
5,RRIRSRPPRLPRPRPRPDPWPRP,0.0152
6,RRIRMRPPRLPRPRPRPFKRPRP,0.0293
7,RRIRMRPPRLPRPRPRPSMFPRP,-0.368
8,RRIRYRPPRLPRPRPRPSHPPRP,-0.639
9,RRIRRRPPRLPRPRPRPSRWPRP,0.08
10,RRIRWRPPRLPRPRPRPYDLPRP,-0.021
11,RRIRWRPPRLPRPRPRPCCVPRP,-0.134
12,RRIRRRPPRLPRPRPRPIWNPRP,0.0946
13,RRIRVRPPRLPRPRPRPYIHPRP,-0.757
14,RRIRFRPPRLPRPRPRPRAEPRP,0.363
15,RRIRWRPPRLPRPRPRPWDMPRP,-0.00946
16,RRIRIRPPRLPRPRPRPKVNPRP,-0.647
17,RRIRARPPRLPRPRPRPDCWPRP,1.21
18,RRIRMRPPRLPRPRPRPYLGPRP,-0.331
19,RRIRWRPPRLPRPRPRPVEIPRP,-0.206
20,RRIRWRPPRLPRPRPRPFWKPRP,-0.136
21,RRIRYRPPRLPRPRPRPQDHPRP,0.0457
22,RRIRTRPPRLPRPRPRPLDPPRP,-0.382

row,Sequence,shrunken log2 fold change
1,RRIRNRPPRLPRPRPRPVCKPRP,-0.0239
2,RRIRLRPPRLPRPRPRPWIVPRP,-0.0907
3,RRIRIRPPRLPRPRPRPCFLPRP,-0.544
4,RRIRYRPPRLPRPRPRPDTWPRP,-0.0135
5,RRIRCRPPRLPRPRPRPNVDPRP,-0.215
6,RRIRCRPPRLPRPRPRPLTTPRP,0.729
7,RRIRPRPPRLPRPRPRPYETPRP,-0.106
8,RRIRVRPPRLPRPRPRPPRRPRP,0.491
9,RRIRRRPPRLPRPRPRPQWHPRP,0.181
10,RRIRCRPPRLPRPRPRPGACPRP,0.257
11,RRIRWRPPRLPRPRPRPTTLPRP,-0.0826
12,RRIRFRPPRLPRPRPRPVWPPRP,0.263
13,RRIRGRPPRLPRPRPRPYYMPRP,-0.238
14,RRIRDRPPRLPRPRPRPDGSPRP,0.0891
15,RRIRNRPPRLPRPRPRPLRNPRP,0.267
16,RRIRDRPPRLPRPRPRPCIDPRP,0.0188
17,RRIRVRPPRLPRPRPRPWPTPRP,0.266
18,RRIRQRPPRLPRPRPRPGQLPRP,-0.0292
19,RRIRDRPPRLPRPRPRPADYPRP,-0.0418
20,RRIRIRPPRLPRPRPRPTNIPRP,-0.237
21,RRIRHRPPRLPRPRPRPPEGPRP,0.168
22,RRIRNRPPRLPRPRPRPYYRPRP,0.0545

row,Sequence,shrunken log2 fold change
1,RRIRWRPPRLPRPRPRPQNKPRP,-0.536
2,RRIRARPPRLPRPRPRPSRVPRP,2.84
3,RRIRERPPRLPRPRPRPVDAPRP,-0.137
4,RRIRERPPRLPRPRPRPPQSPRP,0.0516
5,RRIRVRPPRLPRPRPRPEFMPRP,-0.0942
6,RRIRPRPPRLPRPRPRPSWQPRP,-0.0441
7,RRIRNRPPRLPRPRPRPIMLPRP,-0.482
8,RRIRLRPPRLPRPRPRPNLIPRP,-0.117
9,RRIRERPPRLPRPRPRPMIFPRP,-0.223
10,RRIRNRPPRLPRPRPRPSLDPRP,-0.258
11,RRIRRRPPRLPRPRPRPFMGPRP,-0.366
12,RRIRFRPPRLPRPRPRPCWTPRP,-0.323
13,RRIRVRPPRLPRPRPRPAYGPRP,-0.473
14,RRIRYRPPRLPRPRPRPMEEPRP,-0.138
15,RRIRLRPPRLPRPRPRPCGCPRP,0.282
16,RRIRIRPPRLPRPRPRPICSPRP,-0.118
17,RRIRWRPPRLPRPRPRPSMNPRP,0.0339
18,RRIRRRPPRLPRPRPRPSDEPRP,-0.0356
19,RRIRFRPPRLPRPRPRPIHAPRP,-0.0507
20,RRIRWRPPRLPRPRPRPVAIPRP,-0.0829
21,RRIRDRPPRLPRPRPRPSHQPRP,-0.211
22,RRIRCRPPRLPRPRPRPTKVPRP,-0.413

row,Sequence,shrunken log2 fold change
1,RRIRLRPPRLPRPRPRPIMTPRP,-0.397
2,RRIRKRPPRLPRPRPRPSCIPRP,-0.0677
3,RRIRKRPPRLPRPRPRPCAIPRP,0.101
4,RRIRQRPPRLPRPRPRPSLDPRP,-0.222
5,RRIRCRPPRLPRPRPRPSGVPRP,-0.311
6,RRIRLRPPRLPRPRPRPAWRPRP,0.454
7,RRIRDRPPRLPRPRPRPTNGPRP,-0.0673
8,RRIRGRPPRLPRPRPRPWYNPRP,-0.358
9,RRIRCRPPRLPRPRPRPAQGPRP,0.631
10,RRIRGRPPRLPRPRPRPCIPPRP,-0.165
11,RRIRKRPPRLPRPRPRPWIGPRP,0.0664
12,RRIRGRPPRLPRPRPRPAMLPRP,0.7
13,RRIRARPPRLPRPRPRPLDCPRP,0.49
14,RRIRWRPPRLPRPRPRPHPWPRP,0.0859
15,RRIRNRPPRLPRPRPRPQYNPRP,-0.674
16,RRIRHRPPRLPRPRPRPFFWPRP,0.093
17,RRIRNRPPRLPRPRPRPMIGPRP,-0.536
18,RRIRKRPPRLPRPRPRPSINPRP,0.0278
19,RRIRLRPPRLPRPRPRPMGTPRP,-0.0465
20,RRIRDRPPRLPRPRPRPNWYPRP,-0.476
21,RRIRDRPPRLPRPRPRPEDGPRP,0.316
